The target in the assay is human PD-L1 on cells (human) (UniProt Q9NZQ7). The assay can be described thus: cell-based or functional assay.

The values below come from patent US20140294898A1.

Chain of human PD-L1 on cells (human) (Q9NZQ7 19-290): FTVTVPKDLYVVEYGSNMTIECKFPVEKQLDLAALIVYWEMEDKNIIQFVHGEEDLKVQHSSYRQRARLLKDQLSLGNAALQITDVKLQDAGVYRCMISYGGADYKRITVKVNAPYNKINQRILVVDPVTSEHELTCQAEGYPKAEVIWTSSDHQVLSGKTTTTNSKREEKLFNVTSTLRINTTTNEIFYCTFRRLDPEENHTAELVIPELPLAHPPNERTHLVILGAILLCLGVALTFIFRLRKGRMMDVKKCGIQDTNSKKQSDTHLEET

Take anti-PD-L1 antibody (MDX-1105): the IFNγ secretion by CMV-specific T cells (ELISA), EC50 came to 0.6 nM.
